These results are taken from PMC10786404.

The target of test [1] is protease activated receptor 2 (PAR2) (human (endogenous in Caco-2)) (UniProt P55085).
Test [2] shares this target. This is another data set of the same source.
Test [3] shares this target. The source holds these as a separate data set.
For test [4] the target is unchanged. The source holds these as a separate data set.
The target is the same in test [5]. This is another data set of the same source.

UniProt P55085, sequence (P55085 37-397): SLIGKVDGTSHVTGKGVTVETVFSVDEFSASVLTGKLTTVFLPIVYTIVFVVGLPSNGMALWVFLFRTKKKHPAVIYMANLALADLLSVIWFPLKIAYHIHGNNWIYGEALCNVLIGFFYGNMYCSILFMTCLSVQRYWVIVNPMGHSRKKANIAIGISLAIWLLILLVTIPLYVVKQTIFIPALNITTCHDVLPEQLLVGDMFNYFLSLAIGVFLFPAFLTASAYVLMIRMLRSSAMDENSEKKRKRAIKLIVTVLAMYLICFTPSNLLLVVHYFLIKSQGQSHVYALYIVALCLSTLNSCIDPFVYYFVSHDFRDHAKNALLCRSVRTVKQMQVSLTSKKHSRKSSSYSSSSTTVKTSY

“Recombinant Trichinella spiralis trypsin, C-terminal domain (rTsTryp) (from UniProt E5RYV9 1-667)”: in test [1], the ZO-1 mRNA (qPCR) in Caco-2 cells treated with rTsTryp, against the DMSO group; restored by AZ3451 pretreatment turned out to be 55.9 % decrease and the occludin mRNA (qPCR) in Caco-2 cells treated with rTsTryp, against the DMSO group; restored by AZ3451 pretreatment came out at 52.4 % decrease. In test [2], the ZO-1 protein (Western blot) in the Caco-2 monolayer treated with rTsTryp, against the DMSO group; abrogated by AZ3451 pretreatment was determined as 56.5 % decrease and the occludin protein (Western blot) in the Caco-2 monolayer treated with rTsTryp, against the DMSO group; abrogated by AZ3451 pretreatment was determined as 49 % decrease. The flux of 4 kDa FITC-dextran (FD4) through the Caco-2 monolayer, rTsTryp group against the PBS group (fold of the PBS group) in test [3] stood at 2. For the same substance, the level of phosphorylated ERK1/2 (Western blot) in the Caco-2 monolayer after 2 h with rTsTryp, against the PBS group in test [4] amounted to 210 % increase. For the same substance, in test [5], the promotion of IIL larval invasion of the Caco-2 monolayer by 12, 16 and 20 μg/ml rTsTryp, against the PBS group was found to be 40.2 % promotion.
